# Reference: the nanobody polyreactivity screen of Harvey et al. (2022)
# Assay: yeast display, Sf9 membrane polyspecificity reagent, FACS + sequencing; frameworks hold sequencing errors
# Method in brief: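 Synthetic nanobody libraries on Saccharomyces cerevisiae BJ5465 were galactose-induced for 36–48 hours, stained 1 hour at 4 °C with 10% biotinylated, detergent-solubilized Sf9 membrane reagent and enriched on streptavidin microbeads. FACS then separated cells into low and high (top ~1%) gates by anti-HA (expression) and streptavidin (reagent binding) fluorescence. Genes were colony-PCR amplified, MiSeq 2 × 250 sequenced and CDR-length filtered. A clone's polyreactivity label is that of its gate of origin.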
sequence,measurement,value
QVQLVESGGGLVQAGGSLRLSCAASGRTRHGYTMGWYRQAPGKERELVATISSIGGSTYYADSLKGRFTISRDNAKNTVYLQMNSLKPEDTAVYYSNRGRARVIFSGMDYWGQGTQVTVSS,polyreactivity (PSR sort gate),low polyreactivity
QVQLVESGGGLVQAGGSLRLSCAASGRIFTGNALGWYRPAPGKERELVAVINRTGGSTYYADSVKGRFTISRDNAKNTVYLQMNSLKPEETAVYSCAAYVPWGWRYGYNYWGQGTQVTVSS,polyreactivity (PSR sort gate),high polyreactivity
QVQLVESGGGLVQAGGSLSLSCAASGRTFYAYAMGWYRQAPGTERELVACIDKSGGSPYYADSVKGRFTISRTMRRYRLFTDEQPETGRYRGLLLRCWCVVLSDIQFWGEFDYDYWGQGTQVTVSS,polyreactivity (PSR sort gate),low polyreactivity
QVQLVESGGGLVQAGGSLRLSCAASGSIFYRNVMGWYRQAPGKERELVAAITWSGGSTYYADSVKGRFTISRDNAKNTVYLQMNSLKPEDTAVYYCAAASKGTYRGKVSGYYYWGQGTQVTVSS,polyreactivity (PSR sort gate),high polyreactivity
QVQLVESGGGLVQAGGSLRLSCAASGRTFWYYAMGWYRQAPGHERELVAAITGRGGRTYYADSVTGRFTISRDNAKNTVYLQMNSLKPEDTAVYYCAARLPYLGGYDYWGQGTQVTVSS,polyreactivity (PSR sort gate),high polyreactivity
QVQLVESGGGLVQAGGSLRLSCAASGFIFYYYDMGWYRQAPGKERELVAAISFDGDSTYYADSVKGRFTISRDNAKNTVYLQMNSLKPEDTAVYYCAARDYRYRYGYWGQGTQVTVSS,polyreactivity (PSR sort gate),high polyreactivity
QDQLVESGGGLVQAGGSLRVSCAASGSVFLVNAMGWYRQAPGKERELVAIDGSGGSTYADSVKGRFTISRDNAKNTVYLQMNILKPEDTAVYYCAKDQEGPLYDYWGQGTQVTVSS,polyreactivity (PSR sort gate),low polyreactivity
QVQLVESGGGLVQAGGSLRLSCAASGFTFSRNAMGWYRQAPGKERELDAAITSSGGSTYYADSVKGRFTISRDNAKNTVYLQMNSLKPEDTAVYYCNVVPIWRKYLSQIYGYWGQGTQVTVSS,polyreactivity (PSR sort gate),high polyreactivity
QVQLVESGGGLVQAGGSLRLSCAASGRIFGLYAMGWYRQAPGKEREFVAAINWDGGSTFYADSVKGRFTISRDNAKNTVYLQMNSLKPEDTAVYYCAADVYSYVSYSTYVSVFTYDYWGQGTQVTVSS,polyreactivity (PSR sort gate),low polyreactivity
QVQLVESGGGLVQAGGSLRLSCAASGSTFYVYVMGWYRQAPGKERELVAVIDWRGGSTYYADSVKGRFTISRDNAKNTVYLQMNSLKPEDTAVYYCNKDAQFYYKLPYYKERDWGQGTQVTVSS,polyreactivity (PSR sort gate),low polyreactivity
QVQLVESGGRLVEAGGSLRLSCAASGSTISGNAMGWYRQAPGKERELVAEITSDDSTNYADSVKGRFTISRDNAKNSVYLQMNSLKPEDTAVYYCAADVTYPYYQDHSVDYFIGYAYWRQGTQVTVSS,polyreactivity (PSR sort gate),low polyreactivity
QVQLVESGGGLVQAGGSLRLSCAASGSTFAGNAMGWYRQAPGKERELVAAIDSSTGSTYYADSVKGRFTISRDNAKNTVYLQMNSLKPEDTAVYYSNAEIYPIVKAGRQHPRRYDYWGQGTQVTVSS,polyreactivity (PSR sort gate),low polyreactivity
QVQLVESGGGLVQAGGSLRLSCAASGLTFIPNAMGWYREAPGKERELVAAISGTGGSTYYADSVKGRFTISRDNAKNTVYLLMNSLKPEDTAVYYCAARRRYKSGYWGQGTQVTVSS,polyreactivity (PSR sort gate),high polyreactivity
QVQLVESGGGLVQAGGSLRLSCAASGSIFNRYAMGWYRQAPGKERQFVAAITRRGGNTYYADSVKGRFTISRDNAKNTVYLQMNSLKREDTAVYYCAAPFYYPAGLLYYENNYWGQGTQVTVSS,polyreactivity (PSR sort gate),high polyreactivity
QVQLVESGGGLFQAGGSLRLSCAASGRIYRFYAMGWYRQAPGKERELVAAISASGGSTYYADSVKGRFTSSRDNAKNTVYLQMISLKPEVTAVYYCAAYSWGGGYYWGQGTQVTVSS,polyreactivity (PSR sort gate),high polyreactivity
QVQLVESGGGLVQAGGSLRLSCAPSGSIFIYYAMGWYRPAPGKERELVAAINIGGSTYYADSVKGRFTISRDNAKNSVYLQMKSLKPEDTAVYYCNAATWYRVYPYYIIYDYWGQGTQVTVSS,polyreactivity (PSR sort gate),low polyreactivity
QVQLVESCGGLVQAGGSLRLSCAASGSTFTVNAMGWNRQAPVKERELVDAITQSRGSTSYADSVKGRFTISRDNAKNTVYVQMNSLKPEDTAVYYCNAQRGVRSRKSYRRQFDYWGHGTQVTVSS,polyreactivity (PSR sort gate),low polyreactivity
